According to patent publication US20050084492A1, “Assay method to monitor the response of anti-cytokine therapy” (priority 2003, published 2005):

Tests used:
IL-6 = IL-6 (Homo sapiens, UniProt P05231); assay: Inhibition of IL-6/sIL-6R/IL-1β induced SAA production from A498 cell line, SAA ELISA; assay type: cell-based; details: A498 cells; IL-6 (100 ng/ml), sIL-6R (200 ng/ml) and IL-1b (1 ng/ml) pre-incubated with serial dilutions of antibody; dose dependent (FIG. 2A & B)
From the text: (§1) A-498, a renal carcinoma cell line was purchased from ATCC (Rockville, Md.). Cells were maintained according to ATCC instructions in log phase of cell growth in DMEM/10% heat-inactivated FBS, 1% L-Gut, 1% NEAA and 1% NaPyr. CNTO 328, an anti-human IL-6 antibody developed at Centocor and disclosed in U.S. patent application Ser. No. 10/280,716, hereby incorporated by reference into the present application, was used at several concentrations in the assay. F 105, human anti-gp 120 IgGl, also developed at Centocor, was used as a negative control antibody. Anti-SAA monoclonal antibody (clone REU-86.2, Research Diagnostics, Inc.) was used for SAA immunostaining.
(§2) A498 cells were cultured for 24 hrs in 96-well flat bottom tissue culture plates at a concentration of 6×10^4 cells/100 ul in DMEM complete media at 37 °C./5% CO2. Cells were washed with PBS then starved for 1 hr in 100 ul of serum free DMEM media at room temp. A combination of IL-6 (100 ng/ml), sIL-6R (200 ng /ml) and IL-1b (1 ng/ml) mixture was incubated with serial dilutions of CNTO 328 or F105 control antibody for 30 minutes at room temperature. 100 ul of the mixture was added to the cells and incubated at 37 °C./5% CO2 overnight.
(§3) The cell culture supernatant was assayed immediately for hSAA production using Biosource human SAA kit (Camrillo, Calif.) following manufacturer's instructions.

A498 cells = assay: Induction of SAA production in A498 renal carcinoma cells by cytokines, SAA ELISA of culture supernatant; assay type: cell-based; details: human renal tumor A498 cells stimulated overnight with the cytokine(s); SAA in culture supernatant by ELISA (FIG. 2A)
From the text: as §1, §2, §3

Chain of IL-6 (P05231 30-212): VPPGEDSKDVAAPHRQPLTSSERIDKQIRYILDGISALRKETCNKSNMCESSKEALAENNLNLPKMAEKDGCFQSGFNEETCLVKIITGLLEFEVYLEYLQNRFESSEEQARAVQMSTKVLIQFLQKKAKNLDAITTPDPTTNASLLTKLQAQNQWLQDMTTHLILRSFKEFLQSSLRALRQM

CNTO 328: an anti-human IL-6 antibody developed at Centocor and disclosed in U.S. patent application Ser. No. 10/280,716
inhibition of IL-6/sIL-6R/IL-1β induced SAA production (IL-6): completely inhibited

IL-1b: cytokine used to stimulate A498 cells
SAA produced in culture (A498 cells): < 100 ng/mL
